These results are taken from patent US20210054030.

In data set [1] the test system is TALE-(CV)3-VP64 (Xanthomonas (TALE scaffold)?). In words: cell_activity. The settings on record: HEK293T.
Data set [2] relates to TALE-(FT)3-VP64 (Xanthomonas (TALE scaffold)?). Briefly: cell_activity. The settings on record: HEK293T.
Data set [3] deals with TALE-(CP)3-VP64 (Xanthomonas (TALE scaffold)?). In words: cell_activity. The note with it: HEK293T.
The subject of data set [4] is TALE-(NP)3-VP64 (Xanthomonas (TALE scaffold)?). In words: cell_activity. The note with it: HEK293T.
Data set [5] has as its system TET1 TALE-VP64 (RG) (Xanthomonas (TALE scaffold)?). In words: cell_activity. The settings on record: 5mC at CpG (cellular, high); HeLa.
In data set [6] the test system is TALE-HD (MAPK6 target) (Xanthomonas (TALE scaffold)?). In words: inhibition. The settings on record: MspI protection, 25 C.
Where [7] appears, read: 6mA at bases 7-9 of the site, forward strand.

“CTGGCCAAATACGTA (double strand) [6mA reporter]”: the activity (fold EGFP induction) in data set [1] (setting [7]) is more than 5; in data set [2] (setting [7]) it was more than 5; in data set [3] (setting [7]), more than 5; in data set [4] (6mA at bases 7-9 of the site, forward strand, strongest of the 6mA-specific RVDs), more than 5.

Regarding “CTGGCCAAATACGTA (double strand) [A reporter]”, the 6mA/A selectivity ratio in data set [1], in data set [2], in data set [3] and in data set [4] was > 5 6mA/A ratio each time.

In the case of “TAGGCGTCCTCCGCGAC (double strand) [TET1 promoter, HeLa (highly methylated)]”, the activity (fold induction) in data set [5] worked out at 10.

With “TTCAGCTGGATCCCGGGAGGAGCGGATATAACCAGG (double strand) [MAPK6 probe, 5hmC]”, the binding signal (fold higher Ki than for C) in data set [6] (5hmC at second C of the MspI site CCGG (C14)) was more than 30.

For the sequence “TTCAGCTGGATCCCGGGAGGAGCGGATATAACCAGG (double strand) [MAPK6 probe, 5mC]”, the binding signal (fold higher Ki than for C) in data set [6] (5mC at second C of the MspI site CCGG (C14)) was more than 30.
